T1: full-length human EphA10 expressed on NIH 3T3 cells (human, UniProt Q5JZY3 34-1008)
T1 construct: whole, on cells
T1 sequence (looked up): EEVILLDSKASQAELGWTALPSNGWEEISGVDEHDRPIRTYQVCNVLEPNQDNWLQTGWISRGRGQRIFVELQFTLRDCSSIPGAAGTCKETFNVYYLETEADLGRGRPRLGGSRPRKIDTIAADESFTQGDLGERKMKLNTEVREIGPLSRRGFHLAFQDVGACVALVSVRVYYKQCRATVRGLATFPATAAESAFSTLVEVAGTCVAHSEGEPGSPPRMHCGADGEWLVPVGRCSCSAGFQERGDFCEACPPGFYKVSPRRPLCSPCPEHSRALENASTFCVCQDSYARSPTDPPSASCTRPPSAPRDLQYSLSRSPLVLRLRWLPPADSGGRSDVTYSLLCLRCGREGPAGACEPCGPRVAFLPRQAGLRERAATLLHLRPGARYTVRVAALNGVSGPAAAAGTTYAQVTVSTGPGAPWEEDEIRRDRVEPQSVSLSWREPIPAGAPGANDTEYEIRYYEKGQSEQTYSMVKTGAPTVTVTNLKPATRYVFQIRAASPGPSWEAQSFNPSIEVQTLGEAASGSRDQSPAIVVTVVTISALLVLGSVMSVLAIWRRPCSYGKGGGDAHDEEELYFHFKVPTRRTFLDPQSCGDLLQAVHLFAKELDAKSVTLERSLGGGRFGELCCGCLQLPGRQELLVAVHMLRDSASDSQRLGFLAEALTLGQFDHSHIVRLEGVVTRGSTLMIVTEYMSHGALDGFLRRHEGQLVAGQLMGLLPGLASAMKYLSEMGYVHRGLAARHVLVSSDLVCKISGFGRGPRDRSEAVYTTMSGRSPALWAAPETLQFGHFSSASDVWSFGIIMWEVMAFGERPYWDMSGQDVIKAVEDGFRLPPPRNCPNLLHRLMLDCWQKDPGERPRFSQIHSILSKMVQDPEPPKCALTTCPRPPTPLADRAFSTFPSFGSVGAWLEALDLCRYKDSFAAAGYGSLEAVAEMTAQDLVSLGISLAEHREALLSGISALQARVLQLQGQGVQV

T2: EphA10 antigen (R&D systems) (Homo sapiens (Human), UniProt Q5JZY3 34-565)
T2 construct: Coated antigen in the indirect ELISA; The Biacore assay says only 'EphA 10' without source or form; also called ephrin type-A receptor 10
T2 sequence: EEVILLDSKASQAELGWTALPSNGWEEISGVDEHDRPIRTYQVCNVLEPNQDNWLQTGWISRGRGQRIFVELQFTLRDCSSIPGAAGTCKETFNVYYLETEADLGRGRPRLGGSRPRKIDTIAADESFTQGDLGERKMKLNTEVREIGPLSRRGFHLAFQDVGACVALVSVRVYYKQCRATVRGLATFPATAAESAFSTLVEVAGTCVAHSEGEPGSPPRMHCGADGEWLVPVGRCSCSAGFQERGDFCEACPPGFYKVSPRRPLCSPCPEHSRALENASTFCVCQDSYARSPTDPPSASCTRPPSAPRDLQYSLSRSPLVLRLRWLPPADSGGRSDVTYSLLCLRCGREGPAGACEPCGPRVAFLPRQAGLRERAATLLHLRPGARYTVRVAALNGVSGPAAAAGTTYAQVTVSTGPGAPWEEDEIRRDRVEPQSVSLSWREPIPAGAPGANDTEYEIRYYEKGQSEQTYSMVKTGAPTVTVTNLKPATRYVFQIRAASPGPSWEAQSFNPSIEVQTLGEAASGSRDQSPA

B1: CMU #13 scFv (clone from human B cell-derived scFv phage display library) (scFv)
scFv: QVQLVQSGAEVKKPGSSVKVSCKASGGTFSSYAISWVRQAPGQGLEWMGGIIPIFGTANYAQKFQGRVTITADESTSTAYMELSSLRSEDTAVYYCAREGDSYGYYYGMDVWGQGTTVTVSSGGGGSGGGGSGGGGSQPVLTQPPSASGTPGQRVTISCSGSSSNIGSNYVYWYQQLPGTAPKLLIYENYLRPSGVPDRFSGSKTGTSASLAISGLQSEDEADYYCAAWDDSLNGYVFGTGTQLTVLS
B2: CMU #13 ScFv-mouse IgG2a antibody (Fc fusion)
chain: QVQLVQSGAEVKKPGSSVKVSCKASGGTFSSYAISWVRQAPGQGLEWMGGIIPIFGTANYAQKFQGRVTITADESTSTAYMELSSLRSEDTAVYYCAREGDSYGYYYGMDVWGQGTTVTVSSGGGGSGGGGSGGGGSQPVLTQPPSASGTPGQRVTISCSGSSSNIGSNYVYWYQQLPGTAPKLLIYENYLRPSGVPDRFSGSKTGTSASLAISGLQSEDEADYYCAAWDDSLNGYVFGTGTQLTVLSEPRGPTIKPCPPCKCPAPNLLGGPSVFIFPPKIKDVLMISLSPIVTCVVVDVSEDDPDVQISWFVNNVEVHTAQTQTHREDYNSTLRVVSALPIQHQDWMSGKEFKCKVNNKDLPAPIERTISKPKGSVRAPQVYVLPPPEEEMTKKQVTLTCMVTDFMPEDIYVEWTNNGKTELNYKNTEPVLDSDGSYFMYSKLRVEKKNWVERNSYSCSVVHEGLHNHHTTKSFSRTPGK
notes: The Biacore assay names only 'CMU #13'; also called anti-EphA10 antibody CMU #13

Key:
[1] = target: T1, full-length human EphA10 expressed on …; experiment: FACS on NIH 3T3 cells expressing full-length human EphA10
[2] = target: T2, EphA10 antigen (R&D systems); experiment: Biacore 8K SPR, global fit to 1:1 binding model, triplicates
From the text: CMU #13 was also subjected to a Biacore assay.

[3] = target: T2, EphA10 antigen (R&D systems); experiment: indirect ELISA on coated EphA antigen, ScFv-mouse IgG2a antibody titrated
Description: ScFv sequences were fused with mouse IgG2a sequence and sub-cloned into pcDNA3.1 plasmid. Three ScFv-mouse IgG2a plasmids were transfected into HEK293 cells. Three ScFv-mouse IgG2a antibodies were purified by protein A resin. Three antibodies were tested for indirect ELISA against coated 9 EPHA antigens (EphA1-8 and 10, R&D systems).

| Binder | binding result [1] | Kd [2] [nM] | koff [2] [s⁻¹] | kon [2] [M⁻¹ s⁻¹] | EC50 (read off the curve) [3] [nM] |
| --- | --- | --- | --- | --- | --- |
| B1 | binds |  |  |  |  |
| B2 |  | 1.79 | 0.00288 | 1.61e+06 | ~0.4 |

— patent US20250017968A1 (CHINA MEDICAL UNIVERSITY, published 2025)
